Assay [1] deals with MEL-26 (UniProt Q94420). The assay can be described thus: Far-Western after SDS-PAGE. Particulars: reference: unmodified wild type; sites S92.
Assay [2] concerns the target MEL-26 (UniProt Q94420). The assay can be described thus: native dot blot of Katanin. The settings on record: reference: unmodified wild type; sites S92.
Assay [3] concerns the target T1, Katanin with MEI-1 S92D (6xHis-MEI-1 S92D / Strep-MEI-2) (C. elegans, UniProt P34808 1-472; O44740 1-280, S92D).
T1 sequence (looked up) 1: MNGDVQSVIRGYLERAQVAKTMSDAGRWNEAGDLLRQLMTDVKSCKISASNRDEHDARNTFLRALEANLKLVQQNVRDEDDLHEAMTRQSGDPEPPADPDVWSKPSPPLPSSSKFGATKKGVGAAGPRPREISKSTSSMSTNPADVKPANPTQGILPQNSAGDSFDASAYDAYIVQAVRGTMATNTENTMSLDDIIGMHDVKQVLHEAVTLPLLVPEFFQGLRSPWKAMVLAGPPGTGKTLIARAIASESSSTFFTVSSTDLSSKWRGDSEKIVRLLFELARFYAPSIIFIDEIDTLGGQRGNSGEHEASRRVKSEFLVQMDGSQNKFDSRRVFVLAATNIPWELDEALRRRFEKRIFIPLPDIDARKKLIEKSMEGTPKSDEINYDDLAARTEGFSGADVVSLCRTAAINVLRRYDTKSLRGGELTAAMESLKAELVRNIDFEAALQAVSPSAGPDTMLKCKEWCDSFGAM
T1 sequence (looked up) 2: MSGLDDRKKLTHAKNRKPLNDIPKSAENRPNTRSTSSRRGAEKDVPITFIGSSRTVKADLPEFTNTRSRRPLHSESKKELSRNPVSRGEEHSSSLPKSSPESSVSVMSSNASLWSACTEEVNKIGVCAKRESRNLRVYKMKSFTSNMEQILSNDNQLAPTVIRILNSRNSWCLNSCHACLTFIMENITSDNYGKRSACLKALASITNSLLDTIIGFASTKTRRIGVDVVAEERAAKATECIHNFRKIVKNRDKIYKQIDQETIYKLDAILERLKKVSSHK
The assay can be described thus: overlay or dot blot.

In the next assay the target is T2, MEI-1 S92-aaPho-6xHis (C. elegans, UniProt P34808 1-472, phosphoserine at 92 (100% by mass spectrometry)).
T2 sequence (looked up): T1 sequence (looked up) 1 with D92S
The assay can be described thus: far-Western.

In another assay the target is T3, 6xHis-MEI-1 S92D (C. elegans, UniProt P34808 1-472, S92D).
T3 sequence (looked up): T1 sequence (looked up) 1
The assay can be described thus: far-Western.

Substitutions are numbered along the chain they refer to.

For the molecule “MEI-1 (Katanin p60 catalytic subunit) (from UniProt P34808) S92-aaPho (phosphoserine by genetic code expansion)”, the “binding against the reference” value with MEL-26 [1] and in the assay with MEL-26 [2] was “stronger” in each case.

B1: GST-MEL-26 (natural protein, C. elegans, UniProt Q94420 1-395, looked up)
chain: MEPRIDGGVFIGGIGNSGNEMCSNGVPALGVSSQTEIKVEKVQHTWTVKNFSHCYQEYLENFVYLQRGDEQLTWSIKIYPKGNGENNKDFVFLCLNRVINNNVKAGKIGFKSQFKLRTAENKDIEMRIHPNPSHSDYVSYIKRDVLFPQIMPRDMIIVNVEIDVAVETITTTNEPIQFEPTNSEQQLIEDYQRLFSQELLCDFAINVNGKIIRAHKAVLAARSPVFNAMLTHQDTDEAKSSMMYINDMDYDVIYEMVYYIYCGRCNKDITDMATALLIAADKYRLEELKSHCEKYLVENINIENACSLLIIGDLYSAPKLRKRAVTYILARPKNVTGTPGWEDILKGHPNLITDIFSQIDRQSSTGATSSVSNLPGVPMDIPGITGNIVPPPSGL
With B1, the binding result (in assay [3]; with MEI-1 S92-aaPho-6xHis; in the assay with 6xHis-MEI-1 S92D) was “binds” throughout.

These data come from paper PMC7265321 (The Journal of Cell Biology, 2020).
